In US20250270295A1:

Target: soluble gp34 wild type ectodomain, V5-His tagged (sgp34wt-V5-His) (HCMV strain AD169)
Test: blocking of sgp34wt binding to immobilized human IgG, ELISA

## mouse IgG1 isotype antibody
  IC50: 9.69 µg/mL
